Experimental data: patent US20210253718A1 (MODMAB THERAPEUTICS, published 2021)

T1: FZD6 cysteine-rich domain (CRD), MYC-tagged and GPI-anchored on CHO cells (human, UniProt O60353 20-146, GPI anchor)
T1 construct: also called FZD6 CRD; CHO-myc-FZDGPI; not shown: MYC tag and GPI anchor signal
T1 sequence: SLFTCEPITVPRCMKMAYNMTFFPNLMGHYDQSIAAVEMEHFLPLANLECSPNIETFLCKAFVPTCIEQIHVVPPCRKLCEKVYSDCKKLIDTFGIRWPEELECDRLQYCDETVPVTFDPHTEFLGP

T2: FZD9 cysteine-rich domain (CRD), MYC-tagged and GPI-anchored on CHO cells (human, UniProt O00144 35-161, GPI anchor)
T2 construct: also called FZD9 CRD; CHO-myc-FZDGPI; not shown: MYC tag and GPI anchor signal
T2 sequence: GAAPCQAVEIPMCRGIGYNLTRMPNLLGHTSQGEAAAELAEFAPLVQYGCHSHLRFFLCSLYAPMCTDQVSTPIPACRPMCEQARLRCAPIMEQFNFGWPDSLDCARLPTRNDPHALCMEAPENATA

T3: FZD3 cysteine-rich domain (CRD), MYC-tagged and GPI-anchored on CHO cells (human, UniProt Q9NPG1 24-150, GPI anchor)
T3 construct: domain: cysteine-rich domain (CRD); also called FZD3 CRD; CHO-myc-FZDGPI; not shown: MYC tag and GPI anchor signal
T3 sequence (looked up): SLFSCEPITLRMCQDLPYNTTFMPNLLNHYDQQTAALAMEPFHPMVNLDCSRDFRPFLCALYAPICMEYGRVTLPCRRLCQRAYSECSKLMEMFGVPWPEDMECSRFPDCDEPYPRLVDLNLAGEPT

T4: FZD10 cysteine-rich domain (CRD), MYC-tagged and GPI-anchored on CHO cells (human, UniProt Q9ULW2 30-156, GPI anchor)
T4 construct: also called FZD10 CRD; CHO-myc-FZDGPI; not shown: MYC tag and GPI anchor signal
T4 sequence: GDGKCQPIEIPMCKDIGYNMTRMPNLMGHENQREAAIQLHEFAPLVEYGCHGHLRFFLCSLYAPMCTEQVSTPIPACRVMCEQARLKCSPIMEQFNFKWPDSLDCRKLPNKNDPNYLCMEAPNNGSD

T5: FZD8 cysteine-rich domain (CRD), MYC-tagged and GPI-anchored on CHO cells (human, UniProt Q498S8 31-155 (rat entry), GPI anchor)
T5 construct: also called FZD8 CRD; CHO-myc-FZDGPI; not shown: MYC tag and GPI anchor signal
T5 sequence: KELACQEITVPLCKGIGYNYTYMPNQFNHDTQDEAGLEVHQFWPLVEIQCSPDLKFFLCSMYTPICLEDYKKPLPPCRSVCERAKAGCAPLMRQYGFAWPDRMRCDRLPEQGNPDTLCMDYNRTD

T6: FZD5 cysteine-rich domain (CRD), MYC-tagged and GPI-anchored on CHO cells (human, UniProt Q13467 29-156, GPI anchor)
T6 construct: also called FZD5 CRD; CHO-myc-FZDGPI; not shown: MYC tag and GPI anchor signal
T6 sequence: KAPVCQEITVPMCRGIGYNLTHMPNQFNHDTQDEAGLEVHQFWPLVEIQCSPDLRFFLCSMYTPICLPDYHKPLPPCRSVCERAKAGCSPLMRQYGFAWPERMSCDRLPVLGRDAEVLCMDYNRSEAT

T7: FZD4 cysteine-rich domain (CRD), MYC-tagged and GPI-anchored on CHO cells (human, UniProt Q9ULV1 42-167, GPI anchor)
T7 construct: also called FZD4 CRD; CHO-myc-FZDGPI; not shown: MYC tag and GPI anchor signal
T7 sequence: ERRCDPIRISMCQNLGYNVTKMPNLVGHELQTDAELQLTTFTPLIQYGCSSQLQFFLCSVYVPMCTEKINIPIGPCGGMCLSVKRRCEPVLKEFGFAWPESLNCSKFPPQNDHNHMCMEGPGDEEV


Tests used:
[1] = biological target: T1, FZD6 cysteine-rich domain (CRD), …; assay: immunofluorescence, CHO-CRD cells
[2] = biological target: T8, FZD2 cysteine-rich domain (CRD), MYC-tagged and GPI-anchored on CHO cells (human, UniProt Q14332 35-161); assay: immunofluorescence, CHO-CRD cells
[3] = biological target: T2, FZD9 cysteine-rich domain (CRD), …; assay: immunofluorescence, CHO-CRD cells
[4] = biological target: T3, FZD3 cysteine-rich domain (CRD), …; assay: immunofluorescence, CHO-CRD cells
[5] = biological target: T9, FZD1 cysteine-rich domain (CRD), MYC-tagged and GPI-anchored on CHO cells (human); assay: immunofluorescence, CHO-CRD cells
[6] = biological target: T10, FZD7 cysteine-rich domain (CRD), MYC-tagged and GPI-anchored on CHO cells (human, UniProt O75084 45-169); assay: immunofluorescence, CHO-CRD cells
[7] = biological target: T4, FZD10 cysteine-rich domain (CRD), …; assay: immunofluorescence, CHO-CRD cells
[8] = biological target: T1, FZD6 cysteine-rich domain (CRD), …; assay: flow cytometry, CHO-CRD cells;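 note: flow cytometry of Fab binding to CHO cells overexpressing a Frizzled CRD, with binding defined as median fluorescence over twice that of CHO cells lacking any Frizzled CRD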
Protocol: (§1) Binding was measured via flow cytometry analysis of CHO cells overexpressing CRD of FZD1, FZD2, FZD3, FZD4, FZD5, FZD6, FZD7, FZD8, FZD9 or FZD10. Median fluorescence values are shown.

[9] = biological target: T8, FZD2 cysteine-rich domain (CRD), …; assay: flow cytometry, CHO-CRD cells;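 note: flow cytometry of Fab binding to CHO cells overexpressing a Frizzled CRD, with binding defined as median fluorescence over twice that of CHO cells lacking any Frizzled CRD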
Protocol: as §1

[10] = biological target: T2, FZD9 cysteine-rich domain (CRD), …; assay: flow cytometry, CHO-CRD cells;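 note: flow cytometry of Fab binding to CHO cells overexpressing a Frizzled CRD, with binding defined as median fluorescence over twice that of CHO cells lacking any Frizzled CRD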
Protocol: as §1

[11] = biological target: T3, FZD3 cysteine-rich domain (CRD), …; assay: flow cytometry, CHO-CRD cells;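 note: flow cytometry of Fab binding to CHO cells overexpressing a Frizzled CRD, with binding defined as median fluorescence over twice that of CHO cells lacking any Frizzled CRD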
Protocol: as §1

[12] = biological target: T9, FZD1 cysteine-rich domain (CRD), …; assay: flow cytometry, CHO-CRD cells
Protocol: as §1

[13] = biological target: T5, FZD8 cysteine-rich domain (CRD), …; assay: flow cytometry, CHO-CRD cells
Protocol: as §1

[14] = biological target: T6, FZD5 cysteine-rich domain (CRD), …; assay: flow cytometry, CHO-CRD cells
Protocol: as §1

[15] = biological target: T10, FZD7 cysteine-rich domain (CRD), …; assay: flow cytometry, CHO-CRD cells
Protocol: as §1

[16] = biological target: T4, FZD10 cysteine-rich domain (CRD), …; assay: flow cytometry, CHO-CRD cells
Protocol: as §1

[17] = biological target: T7, FZD4 cysteine-rich domain (CRD), …; assay: immunofluorescence, CHO-CRD cells
[18] = biological target: T7, FZD4 cysteine-rich domain (CRD), …; assay: flow cytometry, CHO-CRD cells
Protocol: as §1

Binder	binding result [1]	binding result [2]	binding result [3]	binding result [4]	binding result [5]	binding result [6]	binding result [7]	median fluorescence [8]	median fluorescence [9]	median fluorescence [10]	median fluorescence [11]	median fluorescence [12]	median fluorescence [13]	median fluorescence [14]	median fluorescence [15]	median fluorescence [16]	binding result [17]	median fluorescence [18]
Fab-2922 (Fab, V domains shown, Fab; also called Fv-2922) VH: EVQLVESGGGLVQPGGSLRLSCAASGFNIYSSYMHWVRQAPGKGLEWVASISPYSGYTSYADSVKGRFTISADTSKNTAYLQMNSLRAEDTAVYYCARTVRGSKKPYFSGWAMDYWGQGTLVTVSS VL: DIQMTQSPSSLSASVGDRVTITCRASQSVSSAVAWYQQKPGKAPKLLIYSASSLYSGVPSRFSGSRSGTDFTLTISSLQPEDFATYYCQQSFVYPYLITFGQGTKVEIK	no binding	no binding	no binding	no binding	no binding	no binding	no binding	3.68	4.78	2.89	4.1	4.83	9.14	56.2	2.62	2.74	–	–
Fab-2920 (Fab, V domains shown, Fab) VH: EVQLVESGGGLVQPGGSLRLSCAASGFNISYYYIHWVRQAPGKGLEWVASIYPSSGSTSYADSVKGRFTISADTSKNTAYLQMNSLRAEDTAVYYCARGGMDYWGQGTLVTVSS VL: DIQMTQSPSSLSASVGDRVTITCRASQSVSSAVAWYQQKPGKAPKLLIYSASSLYSGVPSRFSGSRSGTDFTLTISSLQPEDFATYYCQQWFAGALITFGQGTKVEIK	no binding	no binding	no binding	no binding	no binding	no binding	no binding	3.02	4.57	2.89	3.75	5.73	7.5	28.6	4.91	2.94	no binding	4.22
Fab-2924 (Fab, V domains shown, Fab; also called Fv-2924) VH: EVQLVESGGGLVQPGGSLRLSCAASGFNISYSYIHWVRQAPGKGLEWVASIYSYYSSTSYADSVKGRFTISADTSKNTAYLQMNSLRAEDTAVYYCARGALDYWGQGTLVTVSS VL: DIQMTQSPSSLSASVGDRVTITCRASQSVSSAVAWYQQKPGKAPKLLIYSASSLYSGVPSRFSGSRSGTDFTLTISSLQPEDFATYYCQQWYSGHSLITFGQGTKVEIK	no binding	no binding	no binding	no binding	no binding	no binding	no binding	4.49	6.73	4.49	4.7	6.26	12.1	39.2	6.49	4.78	no binding	6.38
Fab-2936 (Fab, V domains shown, Fab; also called Fv-2936) VH: EVQLVESGGGLVQPGGSLRLSCAASGFNISYYYMHWVRQAPGKGLEWVASIYSSSGSTSYADSVKGRFTISADTSKNTAYLQMNSLRAEDTAVYYCARAAMDYWGQGTLVTVSS VL: DIQMTQSPSSLSASVGDRVTITCRASQSVSSAVAWYQQKPGKAPKLLIYSASSLYSGVPSRFSGSRSGTDFTLTISSLQPEDFATYYCQQWYAASLITFGQGTKVEIK	no binding	no binding	no binding	no binding	no binding	no binding	no binding	2.57	3.52	2.74	3	3.05	7.04	23.5	2.55	2.5	no binding	3.65
Fab-2926 (Fab, V domains shown, Fab; also called Fv-2926) VH: EVQLVESGGGLVQPGGSLRLSCAASGFNIYSSYMHWVRQAPGKGLEWVASIYPSSSSTSYADSVKGRFTISADTSKNTAYLQMNSLRAEDTAVYYCARGGLDYWGQGTLVTVSS VL: DIQMTQSPSSLSASVGDRVTITCRASQSVSSAVAWYQQKPGKAPKLLIYSASSLYSGVPSRFSGSRSGTDFTLTISSLQPEDFATYYCQQWYHGGSLFTFGQGTKVEIK	no binding	no binding	no binding	no binding	no binding	no binding	no binding	3.05	6.21	3.65	4.61	7.17	12.9	34.6	2.71	2.92	no binding	6.73
